{"source": "patent US20110059504A1", "about": "(GENERAL HOSPITAL, published 2011)", "binders": {"B1": {"name": "45927-B3 (designed binder)", "chain": "MTIPEIIIKVRGTQVVGSDMTVIVEFTNPLKETLRNVWVHLDGPGVTRPMKKMFLKIPGCSTVQWEEVVRPWVSGHRKLIASMSMLGLPFSLRFIPVYGELDVQIQRRDYKDDDDK", "notes": "group M1-Aext; extended FG loop; also called Mext (clone ID)"}, "B2": {"name": "45927-A3 (designed binder)", "chain": "B1 chain with P58L", "notes": "group M1-Aext"}, "B3": {"name": "61362-F2 (designed binder)", "chain": "MTIPEIIIKVRGTQVVGSDMTVIVEFINTSNETLPSVWVHLDGPGVTRPMKKMFPEIPPNSSVQWEAWVSGHRKLIASMIRDSSRHVYGELDVQIQRRDYKDDDDK", "notes": "group N2; Δ67-70, P71A"}, "B4": {"name": "61363-C12 (G45E) (designed binder)", "chain": "MTIPEIIIKVRGTQVVGSDMTVIVEFTNPLEENLYNVWVHLDGPEVTRPMKKMFYQISTNIPVQWEEVVRPWVSGHRKLIASMGAHTKDHVYGELDVQIQRRDYKDDDDK", "notes": "group N4; G45E"}, "B5": {"name": "61363-H1 (V15A) (designed binder)", "chain": "MTIPEIIIKVRGTQAVGSDMTVIVEFTNPLKETLYNVWVHLDGPGVTRPMKKMFWEIRTNHPVQWEEVVRPWVSGHRKLIASMSSNSRDHVYGELDVQIQRRDYKDDDDK", "notes": "group N4; V15A"}, "B6": {"name": "61362-B8 (I23L) (designed binder)", "chain": "MTIPEIIIKVRGTQVVGSDMTVLVEFTIPLQDILNVWVHLDGPGVTRPMKKMFFSIRMTPAVQWEEVVRPWVSGHRKLIASMSFHTHRHVYGELDVQIQRRDYKDDDDK", "notes": "group N4; I23L"}, "B7": {"name": "61362-C6 (designed binder)", "chain": "MTIPEIIIKVRGTQVVGSDMTVIVEFTNPLNEPLLFVWVHLDGPGVTRPMKKMFRIISPHATVQWEEVVRPWVSGHRKLIASMSIGFQAHVYGELDVQIQRRDYKDDDDK", "notes": "group N1"}, "B8": {"name": "61363-C1 (G17D) (designed binder)", "chain": "MTIPEIIIKVRGTQVVDSDMTVIVEFTDTVLEILRTVWVHLDGPGVTRPMKKMFPHIRPKVTVQWEEVVRPWVSGHRKLIASMLIASLRHVYGELDVQIQRRDYKDDDDK", "notes": "group N3; G17D"}, "B9": {"name": "M1-1, E. coli-produced (designed binder)", "chain": "MTIPEIIIKVRGTQVVGSDMTVIVEFTNPLKETLRNVWVHLDGPGVTRPMKKMFPAIPMNHKVQWEEVVRPWVSGHRKLIASMPQLFHIHVYGELDVQIQRRHHHHHH"}, "B10": {"name": "FG6+6 phage clone MNPRMEM / HPDSD / RLWTLWMARWRW (designed binder)", "chain": "TIPEIIIKVRGTQVVGSDMTVIVEFMNPRMEMLRNVWVHLDGPGVTRPMKKMFREIHPDSDVQWEEVVRPWVSGHRKLIASMSRLWTLWMARWRWVYGELDVQIQRR", "notes": "not shown: 6-his, myc tag and C-terminal domain of M13 pIII (phage display fusion)"}, "B11": {"name": "FG6+6 phage clone SNPLSRP / RPHSN / SRSLWLSIGKRH (designed binder)", "chain": "TIPEIIIKVRGTQVVGSDMTVIVEFSNPLSRPLRNVWVHLDGPGVTRPMKKMFREIRPHSNVQWEEVVRPWVSGHRKLIASMSSRSLWLSIGKRHVYGELDVQIQRR", "notes": "as for B10"}, "B12": {"name": "FG6+6 phage clone TNPLRGT / PPNVK / GLSTAGRWKRVR (designed binder)", "chain": "TIPEIIIKVRGTQVVGSDMTVIVEFTNPLRGTLRNVWVHLDGPGVTRPMKKMFREIPPNVKVQWEEVVRPWVSGHRKLIASMSGLSTAGRWKRVRVYGELDVQIQRR", "notes": "as for B10"}, "B13": {"name": "FG6+6 phage clone GNPTKET / RPRSM / YRPRRGGMRLRH (designed binder)", "chain": "TIPEIIIKVRGTQVVGSDMTVIVEFGNPTKETLRNVWVHLDGPGVTRPMKKMFREIRPRSMVQWEEVVRPWVSGHRKLIASMSYRPRRGGMRLRHVYGELDVQIQRR", "notes": "as for B10"}, "B14": {"name": "FG6+6 phage clone TNPRRRV / RPRST / WNSRWPAPTRRR (designed binder)", "chain": "TIPEIIIKVRGTQVVGSDMTVIVEFTNPRRRVLRNVWVHLDGPGVTRPMKKMFREIRPRSTVQWEEVVRPWVSGHRKLIASMSWNSRWPAPTRRRVYGELDVQIQRR", "notes": "as for B10"}, "B15": {"name": "FG6 phage clone INPLQVS / GPSSA / IYRYGL (designed binder)", "chain": "TIPEIIIKVRGTQVVGSDMTVIVEFINPLQVSLRNVWVHLDGPGVTRPMKKMFREIGPSSAVQWEEVVRPWVSGHRKLIASMSIYRYGLVYGELDVQIQRR", "notes": "as for B10"}, "B16": {"name": "FG6 phage clone ANPIKHM / RPTAG / LGVLRR (designed binder)", "chain": "TIPEIIIKVRGTQVVGSDMTVIVEFANPIKHMLRNVWVHLDGPGVTRPMKKMFREIRPTAGVQWEEVVRPWVSGHRKLIASMSLGVLRRVYGELDVQIQRR", "notes": "as for B10"}, "B17": {"name": "FG6 phage clone RRPTKGN / GPGQV / LGMLRR (designed binder)", "chain": "B16 chain with A26R, N27R, I29T, H31G, M32N, R57G, T59G, A60Q, G61V, V86M", "notes": "as for B10"}, "B18": {"name": "FG6 phage clone TIPHRGR / QPNVP / RAFLRH (designed binder)", "chain": "TIPEIIIKVRGTQVVGSDMTVIVEFTIPHRGRLRNVWVHLDGPGVTRPMKKMFREIQPNVPVQWEEVVRPWVSGHRKLIASMSRAFLRHVYGELDVQIQRR", "notes": "as for B10"}, "B19": {"name": "FG6 phage clone PSPFIEN / RPECI / RGWLRS (designed binder)", "chain": "TIPEIIIKVRGTQVVGSDMTVIVEFPSPFIENLRNVWVHLDGPGVTRPMKKMFREIRPECIVQWEEVVRPWVSGHRKLIASMSRGWLRSVYGELDVQIQRR", "notes": "as for B10"}}, "note": "Positions count from the first letter of the chain named. Numbers in names are those of the source."}
{"molecular_target": "T1, human myostatin (human, UniProt O14793 267-375, biotinylated in selections and radioactive assays (site not stated))", "T1 construct": "Phage ELISA used both unbiotinylated and biotinylated myostatin; also called biotinylated human myostatin; myostatin-biotin", "T1 sequence (looked up)": "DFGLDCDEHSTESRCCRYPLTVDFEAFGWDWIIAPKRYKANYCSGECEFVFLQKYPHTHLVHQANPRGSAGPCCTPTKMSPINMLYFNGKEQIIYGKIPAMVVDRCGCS", "experiment": "radioactive equilibrium binding assay", "method": "(§1) Affinities of selected F13β2 binders to biotinylated myostatin were determined in radioactive equilibrium binding assay (FIGS. 11A and 11B; Table 3). ³⁵S-labeled binder proteins from selection pools and single clones were produced in vitro in a rabbit reticulocyte lysate translation kit (Ambion) and purified on M2-agarose (Sigma). Varying concentrations of biotinylated human myostatin (0-100 nM) or other proteins (protein 1: 100 nM; peptide 1: 250 nM; protein 2: 50 nM) were incubated with a constant concentration of the purified binder protein (1 or 2 nM) at 30° C. for 30 min in buffer B (1×PBS, 0.02% Triton X-100 [pH 7.4]). The receptor-binder complexes were captured by using 25 μl of M280 or Protein A (Dynal) (protein 2) magnetic beads for 10 min at room temperature on a Kingfisher instrument (Thermo Fisher Scientific). The beads were washed five times with 100 μl buffer B, and the amount of ³⁵S-methionine remained on the beads was measured by scintillation counting. Data were analyzed by using the GraphPad Prism software (GraphPad Software, Inc., San Diego, Calif.), fitted with a one-site, nonlinear binding equation. For inhibition assay the binding of ³⁵S-labeled proteins to 20 or 25 nM of biotinylated human myostatin was performed in the presence of varying concentrations of inhibitor (human activin receptor IIB/Fc chimera (R&D Systems, Minneapolis, Minn.) (0-250 nM); protein 1 (100 nM), peptide 1 (250 nM), protein 2 (50 nM); proteins, produced in E. coli, M17, M7, M29, M21, M1-1, WT F13β2 (500 nM)).", "units": {"B max": "%", "Kd": "nM"}}
{"binder": "B1", "B max": 50.7, "Kd": 86.7}
{"binder": "B2", "B max": 36.4, "Kd": 53.2}
{"molecular_target": "T1, human myostatin", "experiment": "radioactive equilibrium binding assay", "remark": "another data set of the same source", "units": {"Kd": "nM"}}
{"binder": "B1", "Kd": "53 to 86"}
{"binder": "B2", "Kd": "53 to 86"}
{"molecular_target": "T2, human β-NGF (human, UniProt P01138 122-241, biotinylated (site not stated))", "T2 construct": "also called biotinylated human β-NGF; nerve growth factor", "T2 sequence (P01138 122-241 limits assumed)": "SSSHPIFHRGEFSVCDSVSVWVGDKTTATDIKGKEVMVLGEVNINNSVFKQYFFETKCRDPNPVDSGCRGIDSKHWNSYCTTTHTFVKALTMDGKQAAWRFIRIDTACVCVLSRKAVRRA", "experiment": "radioactive equilibrium binding assay", "units": {"Kd": "nM"}}
{"binder": "B3", "Kd": "< 100"}
{"binder": "B4", "Kd": "< 100"}
{"binder": "B5", "Kd": "< 100"}
{"binder": "B6", "Kd": "< 100"}
{"molecular_target": "T3, streptavidin beads (M-280 beads) (UniProt P22629 37-163, limits assumed)", "T3 construct": "Capture beads used as negative control", "T3 sequence (P22629 37-163 limits assumed)": "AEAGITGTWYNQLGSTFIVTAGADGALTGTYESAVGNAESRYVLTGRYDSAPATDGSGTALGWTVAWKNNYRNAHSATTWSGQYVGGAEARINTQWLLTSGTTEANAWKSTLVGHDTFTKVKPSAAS", "experiment": "radioactive equilibrium binding assay"}
{"binder": "B7", "binding result": "no binding"}
{"binder": "B3", "binding result": "no binding"}
{"binder": "B8", "binding result": "no binding"}
{"binder": "B4", "binding result": "no binding"}
{"binder": "B5", "binding result": "no binding"}
{"binder": "B6", "binding result": "no binding"}
{"molecular_target": "T1, human myostatin", "experiment": "cell-based or functional assay", "units": {"EC50 (read off the curve); blocking of myostatin-induced inhibition of MPC-11 proliferation": "nM"}}
{"binder": "B9", "EC50 (read off the curve); blocking of myostatin-induced inhibition of MPC-11 proliferation": "~20"}
{"molecular_target": "T4, FcεRI-MBP (UniProt P12319 26-205)", "T4 construct": "Produced in E. coli; order of the two parts is printed both ways (mbp-FcεRI, FcεRI-MBP); also called mbp-FcεRI; mbpFcεRI", "T4 sequence (looked up)": "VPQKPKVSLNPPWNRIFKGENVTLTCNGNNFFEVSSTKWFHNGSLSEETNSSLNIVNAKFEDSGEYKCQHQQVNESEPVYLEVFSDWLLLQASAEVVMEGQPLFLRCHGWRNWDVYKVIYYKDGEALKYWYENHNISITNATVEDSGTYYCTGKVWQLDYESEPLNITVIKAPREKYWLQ", "experiment": "phage ELISA on target-coated Maxisorp wells, anti-M13 pVIII-HRP", "method": "(§2) An Elisa screening was performed after four rounds of selection to identify binding clones. Randomly picked phagemid clones were incubated with target-coated or buffer-coated Maxisorp wells at room temperature for 1 hour. Unbound phage was removed and the wells were washed eight times with PBS pH 7.4, 0.05% Tween-20. Binding was determined with an anti-M13 pVIII antibody-HRP conjugate (GE). […] Varying levels of binding to targets and the Maxisorp surface were also observed in other clones."}
{"binder": "B10", "Target Binding": 2.35}
{"binder": "B11", "Target Binding": 3.31}
{"binder": "B12", "Target Binding": 4}
{"binder": "B13", "Target Binding": 4}
{"binder": "B14", "Target Binding": 1.73}
{"molecular_target": "chicken lysozyme (chicken, UniProt P00698 19-147)", "sequence (P00698 19-147 limits assumed)": "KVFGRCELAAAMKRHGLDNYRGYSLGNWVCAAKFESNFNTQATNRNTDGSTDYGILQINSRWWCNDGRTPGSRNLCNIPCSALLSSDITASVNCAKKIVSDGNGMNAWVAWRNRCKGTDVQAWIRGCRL", "experiment": "phage ELISA on target-coated Maxisorp wells, anti-M13 pVIII-HRP", "method": "as §2"}
{"binder": "B15", "Target Binding": 4}
{"binder": "B16", "Target Binding": 2.83}
{"binder": "B17", "Target Binding": 2.45}
{"binder": "B18", "Target Binding": 0.34}
{"binder": "B19", "Target Binding": 1.19}
{"molecular_target": "T2, human β-NGF", "experiment": "radioactive equilibrium binding assay", "remark": "another data set of the same source", "method": "as §1\nSelected F13β2 binders were tested for binding to biotinylated β-NGF in radioactive equilibrium binding assay (FIGS. 21A and 21B; Table 4) according to the procedure described for myostatin binders. NGF at concentrations up to 100 nM was incubated with a constant concentration of the purified binder protein (1 or 2 nM) at 30° C. for 1 hour. Affinities to human β-NGF differed greatly between various binders.", "units": {"B max": "%", "Kd": "nM"}}
{"binder": "B7", "B max": 5.5, "Kd": 24}
{"binder": "B3", "B max": 35.4, "Kd": 62}
{"binder": "B8", "B max": 1.8, "Kd": 2.8}
{"binder": "B4", "B max": 33.6, "Kd": 36}
{"binder": "B5", "B max": 8.4, "Kd": 22.9}
{"binder": "B6", "B max": 2.1, "Kd": 3.8}
